Assay [1] addresses T1, extra domain A (EDA) of fibronectin.
T1 chain: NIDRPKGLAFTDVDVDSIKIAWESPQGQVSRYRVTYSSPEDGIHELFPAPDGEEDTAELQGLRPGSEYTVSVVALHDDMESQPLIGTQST
Briefly: ELISA, EDA coated on plate, Fab titrated, anti-human IgG-HRP detection; apparent Kd by one-site nonlinear regression. (In an ELISA, binding on a coated surface is turned into a signal by an enzyme label.)

For assay [2] the target is unchanged. Description: ELISA on plates coated with 10 µg/mL EDA, detection with HRP anti-human IgG, absorbance at 450 nm [panel C].

B1: Human anti-EDA Fab (Fab, V domains shown)
VH: EVQLLESGGGLVQPGGSLRLSCAASGFTFSVMKMSWVRQAPGKGLEWVSAISGSGGSTYYADSVKGRFTISRDNSKNTLYLQMNSLRAEDTAVYYCAKSTHLYLFDYWGQGTLVTVSS
VL: EIVLTQSPGTLSLSPGERATLSCRASQSVSNAFLAWYQQKPGQAPRLLIYGASSRATGIPDRFSGSGSGTDFTLTISRLEPEDFAVYYCQQMRGRPPTFGQGTKVEIKR
notes: Made recombinantly in HEK-293F cells
For B1, the Kd in assay [1] stood at 50.9 nM. Besides, the concentration for a half-maximal effect (EC50 (read off the curve)) in assay [2] was ~80 nM.

The EC50 (read off the curve) is the concentration at which the effect is half-maximal. High values mean lower potency in that assay, low ones higher potency in that assay.

The values are drawn from US20220305135A1 (UNIVERSITY OF CHICAGO, published 2022).
